Measured values from FireProtDB (doi:10.1073/pnas.96.20.11283).
Where “and” joins values, the source holds several entries; their conditions need not be identical. Identical values can stand only once.

Details: Homo sapiens, pH 4.2, 20 °C, Urea, CD, sodium acetate 2 mM, whole UniProt chain shown

B1: Alpha-lactalbumin wild type, P00709 (protein)
chain: MRFFVPLFLVGILFPAILAKQFTKCELSQLLKDIDGYGGIALPELICTMFHTSGYDTQAIVENNESTEYGLFQISNKLWCKSSQVPQSRNICDISCDKFLDDDITDDIMCAKKILDIKGIDYWLAHKALCTEKLEQWLCEKL
Q: What does the source list for B1?
A: denaturant m value (Na2SO4 20 mM): 0.88 kcal/mol/M and 0.67 kcal/mol/M; denaturant midpoint (higher = more stable) (Na2SO4 20 mM): 4.34 M and 5.85 M; denaturant m value (NaCl 30 mM): 0.58 kcal/mol/M; denaturant midpoint (higher = more stable) (NaCl 30 mM): 5.43 M; denaturant midpoint (higher = more stable) (NaClO4 50 mM): 4.62 M and 6.06 M
